From patent US20240132578A1

Assays:
[1] = target: HIV-1 92BR020 envelope (Env) on pseudovirus (HIV-1); test: cell-based or functional assay
[2] = target: HIV-1 Env of isolate MGRM-A-002 (clade A pseudovirus) (HIV-1); test: cell-based or functional assay
[3] = target: HIV-1 Env of isolate SF162 (HIV-1) (UniProt P19550); test: cell-based or functional assay
[4] = target: HIV-1 MGRM-G-001 Env (pseudovirus) (HIV-1); test: cell-based or functional assay
[5] = target: HIV-1 envelope glycoprotein (Env) of isolate MGRM-C-024 (HIV-1); test: cell-based or functional assay
[6] = target: HIV-1 Env of isolate 93IN905 (HIV-1); test: cell-based or functional assay
[7] = target: HIV-1 Env of isolate 93MW959 (HIV-1); test: cell-based or functional assay
[8] = target: HIV-1 Env of isolate 97ZA012 (HIV-1); test: cell-based or functional assay
[9] = target: HIV-1 Env of isolate 98IN022 (HIV-1); test: cell-based or functional assay
[10] = target: HIV-1 Env of isolate JRCSF (HIV-1) (UniProt P20871); test: cell-based or functional assay
[11] = target: HIV-1 Env of isolate MGRM-Chronic-B-010 (HIV-1); test: cell-based or functional assay
[12] = target: HIV-1 Env of isolate MGRM-Chronic-B-011 (HIV-1); test: cell-based or functional assay
[13] = target: HIV-1 Env of isolate MGRM-Chronic-B-012 (HIV-1); test: cell-based or functional assay
[14] = target: HIV-1 Env of isolate MGRM-Chronic-B-017 (HIV-1); test: cell-based or functional assay
[15] = target: HIV-1 Env of isolate MGRM-Chronic-B-018 (HIV-1); test: cell-based or functional assay
[16] = target: HIV-1 Env of isolate MGRM-Chronic-B-020 (HIV-1); test: cell-based or functional assay
[17] = target: HIV-1 Env of isolate MGRM-Chronic-B-023 (HIV-1); test: cell-based or functional assay
[18] = target: HIV-1 Env of isolate MGRM-Chronic-B-024 (HIV-1); test: cell-based or functional assay
[19] = target: HIV-1 Env of isolate NL43 (HIV-1); test: cell-based or functional assay
[20] = target: HIV-1 Env of isolate PVO.4 (HIV-1); test: cell-based or functional assay
[21] = target: HIV-1 Env of isolate QH0692.42 (HIV-1); test: cell-based or functional assay
[22] = target: HIV-1 Env of isolate SC422661.8 (HIV-1); test: cell-based or functional assay
[23] = target: HIV-1 Env of isolate THR0.18 (HIV-1); test: cell-based or functional assay
[24] = target: HIV-1 Env of isolate TRJ04551.58 (HIV-1); test: cell-based or functional assay
[25] = target: HIV-1 Env of isolate TRO.11 (HIV-1); test: cell-based or functional assay
[26] = target: HIV-1 Env of isolate VLGCB3 (HIV-1); test: cell-based or functional assay
[27] = target: HIV-1 Env of pseudovirus MGRM-D-021 (HIV-1); test: cell-based or functional assay
[28] = target: HIV-1 Env of pseudovirus MGRM-F1-010 (HIV-1); test: cell-based or functional assay
[29] = target: HIV-1 Env of pseudovirus MGRM-F1-013 (HIV-1); test: cell-based or functional assay
[30] = target: HIV-1 92RW020 Env (HIV-1); test: cell-based or functional assay
[31] = target: HIV-1 Env of isolate MGRM-AE-004 (pseudovirus) (HIV-1); test: cell-based or functional assay
[32] = target: HIV-1 Env of isolate MGRM-AE-005 (pseudovirus) (HIV-1); test: cell-based or functional assay
[33] = target: HIV-1 Env of isolate MGRM-AE-006 (pseudovirus) (HIV-1); test: cell-based or functional assay
[34] = target: HIV-1 Env of isolate MGRM-G-017 (subtype G) (HIV-1); test: cell-based or functional assay
[35] = target: HIV-1 Env of isolate 92UG031 (pseudovirus) (HIV-1); test: cell-based or functional assay
[36] = target: HIV-1 Env of isolate 92UG037 (pseudovirus) (HIV-1); test: cell-based or functional assay
[37] = target: HIV-1 Env of isolate 92WR020 (pseudovirus) (HIV-1); test: cell-based or functional assay
[38] = target: HIV-1 Env of isolate 92WR021 (pseudovirus) (HIV-1); test: cell-based or functional assay
[39] = target: HIV-1 Env of isolate 92WR024 (pseudovirus) (HIV-1); test: cell-based or functional assay
[40] = target: HIV-1 Env of isolate 93UG077 (pseudovirus) (HIV-1); test: cell-based or functional assay
[41] = target: HIV-1 Env of isolate 93WR029 (pseudovirus) (HIV-1); test: cell-based or functional assay
[42] = target: HIV-1 Env of isolate 94UG103 (pseudovirus) (HIV-1); test: cell-based or functional assay
[43] = target: HIV-1 JR-CSF Env I424A (HIV-1 (isolate JR-CSF)) (UniProt P20871); test: cell-based or functional assay
[44] = target: HIV-1 JR-CSF Env L416A (HIV-1 (isolate JR-CSF)) (UniProt P20871); test: cell-based or functional assay
[45] = target: HIV-1 JR-CSF Env R419A (HIV-1 (isolate JR-CSF)) (UniProt P20871); test: cell-based or functional assay
[46] = target: WT JR-FL gp120 (HIV-1 JR-FL); test: ELISA, antigen-coated wells, mAb titrated; EC50 by nonlinear regression

Chain of PGT-143 (4980_N08) (antibody) (VH): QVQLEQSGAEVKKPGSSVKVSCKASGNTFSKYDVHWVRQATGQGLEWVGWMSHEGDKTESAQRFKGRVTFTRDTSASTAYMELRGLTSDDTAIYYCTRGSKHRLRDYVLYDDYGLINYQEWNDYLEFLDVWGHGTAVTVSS
Chain of PGT-143 (4980_N08) (antibody) (VL): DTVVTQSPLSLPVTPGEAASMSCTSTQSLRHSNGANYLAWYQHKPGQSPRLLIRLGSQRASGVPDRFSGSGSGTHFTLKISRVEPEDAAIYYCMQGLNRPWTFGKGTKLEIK

## 4E10 (antibody)
[1]
  neutralization IC50: 41.4 µg/mL
[2]
  IC50 (µg/ml), pseudovirus neutralization: 6.45 µg/mL
[3]
  IC50 (µg/ml), pseudovirus neutralization: 4.28 µg/mL
[4]
  IC50 (µg/ml), pseudovirus neutralization: 2.04 µg/mL
[5]
  IC50 (µg/ml), pseudovirus neutralization: 22.6 µg/mL

## PGT-143 (4980_N08) (antibody)
[6]
  IC50, pseudovirus neutralization: 0.002 µg/mL
[7]
  IC50, pseudovirus neutralization: 0.002 µg/mL
[8]
  IC50, pseudovirus neutralization: > 50 µg/mL
[9]
  IC50, pseudovirus neutralization: 0.001 µg/mL
[10]
  IC50, pseudovirus neutralization: 0.007 µg/mL
[11]
  IC50, pseudovirus neutralization: > 50 µg/mL
[12]
  IC50, pseudovirus neutralization: 1.56 µg/mL
[13]
  IC50, pseudovirus neutralization: > 50 µg/mL
[14]
  IC50, pseudovirus neutralization: 0.145 µg/mL
[15]
  IC50, pseudovirus neutralization: 0.377 µg/mL
[16]
  IC50, pseudovirus neutralization: > 50 µg/mL
[17]
  IC50, pseudovirus neutralization: 0.236 µg/mL
[18]
  IC50, pseudovirus neutralization: 0.01 µg/mL
[19]
  IC50, pseudovirus neutralization: > 50 µg/mL
[20]
  IC50, pseudovirus neutralization: 0.162 µg/mL
[21]
  IC50, pseudovirus neutralization: > 50 µg/mL
[22]
  IC50, pseudovirus neutralization: 2.02 µg/mL
[3]
  IC50, pseudovirus neutralization: > 50 µg/mL
[23]
  IC50, pseudovirus neutralization: 0.016 µg/mL
[24]
  IC50, pseudovirus neutralization: > 50 µg/mL
[25]
  IC50, pseudovirus neutralization: 0.219 µg/mL
[26]
  IC50, pseudovirus neutralization: > 50 µg/mL
[27]
  IC50, pseudovirus neutralization: > 50 µg/mL
[28]
  IC50, pseudovirus neutralization: > 50 µg/mL
[29]
  IC50, pseudovirus neutralization: 0.013 µg/mL

## 1496_C09 (PG9) (TCN-109) (antibody)
[30]
  IC50, pseudovirus neutralization: 0.161 µg/mL
[6]
  IC50 (µg/mL), pseudovirus neutralization: 0.035 µg/mL
[7]
  IC50 (µg/mL), pseudovirus neutralization: 0.054 µg/mL
[8]
  IC50 (µg/mL), pseudovirus neutralization: 3.4 µg/mL
[9]
  IC50 (µg/mL), pseudovirus neutralization: 0.003 µg/mL
[31]
  IC50 (µg/mL), pseudovirus neutralization: 0.009 µg/mL
[32]
  IC50 (µg/mL), pseudovirus neutralization: 0.282 µg/mL
[33]
  IC50 (µg/mL), pseudovirus neutralization: 0.063 µg/mL
[18]
  IC50 (µg/mL), pseudovirus neutralization: 0.222 µg/mL
[34]
  IC50 (µg/mL), pseudovirus neutralization: 0.104 µg/mL
[20]
  IC50 (µg/mL), pseudovirus neutralization: 24.8 µg/mL
[22]
  IC50 (µg/mL), pseudovirus neutralization: 1.48 µg/mL
[23]
  IC50 (µg/mL), pseudovirus neutralization: 26.4 µg/mL
[24]
  IC50 (µg/mL), pseudovirus neutralization: 0.858 µg/mL
[25]
  IC50 (µg/mL), pseudovirus neutralization: 16.9 µg/mL
[26]
  IC50 (µg/mL), pseudovirus neutralization: 0.022 µg/mL
[4]
  IC50 (µg/ml), pseudovirus neutralization: 0.16 µg/mL
[5]
  IC50 (µg/ml), pseudovirus neutralization: 0.22 µg/mL

## b12 (antibody)
[1]
  neutralization IC50: 27.5 µg/mL
[2]
  IC50 (µg/ml), pseudovirus neutralization: > 50 µg/mL
[3]
  IC50 (µg/ml), pseudovirus neutralization: 0.02 µg/mL
[4]
  IC50 (µg/ml), pseudovirus neutralization: > 50 µg/mL
[5]
  IC50 (µg/ml), pseudovirus neutralization: > 50 µg/mL

## 5114_A19 (PGT-128) (antibody)
[35]
  IC50 (µg/mL), pseudovirus neutralization: > 50 µg/mL
[36]
  IC50 (µg/mL), pseudovirus neutralization: 0.006 µg/mL
[37]
  IC50 (µg/mL), pseudovirus neutralization: 0.005 µg/mL
[38]
  IC50 (µg/mL), pseudovirus neutralization: 0.005 µg/mL
[39]
  IC50 (µg/mL), pseudovirus neutralization: > 50 µg/mL
[6]
  IC50 (µg/mL), pseudovirus neutralization: 0.009 µg/mL
[7]
  IC50 (µg/mL), pseudovirus neutralization: 0.045 µg/mL
[40]
  IC50 (µg/mL), pseudovirus neutralization: 0.014 µg/mL
[41]
  IC50 (µg/mL), pseudovirus neutralization: > 50 µg/mL
[42]
  IC50 (µg/mL), pseudovirus neutralization: 0.011 µg/mL
[8]
  IC50 (µg/mL), pseudovirus neutralization: 0.019 µg/mL
[9]
  IC50 (µg/mL), pseudovirus neutralization: 0.014 µg/mL
[10]
  IC50 (µg/mL), pseudovirus neutralization: 0.003 µg/mL
[11]
  IC50 (µg/mL), pseudovirus neutralization: 0.004 µg/mL
[12]
  IC50 (µg/mL), pseudovirus neutralization: 0.02 µg/mL
[13]
  IC50 (µg/mL), pseudovirus neutralization: 0.026 µg/mL
[14]
  IC50 (µg/mL), pseudovirus neutralization: > 50 µg/mL
[15]
  IC50 (µg/mL), pseudovirus neutralization: 0.02 µg/mL
[16]
  IC50 (µg/mL), pseudovirus neutralization: 0.007 µg/mL
[17]
  IC50 (µg/mL), pseudovirus neutralization: > 50 µg/mL
[18]
  IC50 (µg/mL), pseudovirus neutralization: > 50 µg/mL
[19]
  IC50 (µg/mL), pseudovirus neutralization: > 50 µg/mL
[20]
  IC50 (µg/mL), pseudovirus neutralization: 0.005 µg/mL
[21]
  IC50 (µg/mL), pseudovirus neutralization: 0.029 µg/mL
[22]
  IC50 (µg/mL), pseudovirus neutralization: 1.58 µg/mL
[3]
  IC50 (µg/mL), pseudovirus neutralization: 0.007 µg/mL
[23]
  IC50 (µg/mL), pseudovirus neutralization: > 50 µg/mL
[24]
  IC50 (µg/mL), pseudovirus neutralization: 0.019 µg/mL
[25]
  IC50 (µg/mL), pseudovirus neutralization: 0.018 µg/mL
[26]
  IC50 (µg/mL), pseudovirus neutralization: 0.012 µg/mL
[43]
  Fold IC50 increase relative to wild-type (pseudovirus neutralization): 1.3 fold
[44]
  Fold IC50 increase relative to wild-type (pseudovirus neutralization): 1.1 fold
[45]
  Fold IC50 increase relative to wild-type (pseudovirus neutralization): 0.5 fold
[46]
  EC50: 0.1 µg/mL

## 1495_C14 (PGC14) (antibody)
[1]
  neutralization IC50: 0.637 µg/mL
[2]
  IC50 (µg/ml), pseudovirus neutralization: > 50 µg/mL
[3]
  IC50 (µg/ml), pseudovirus neutralization: < 0.0025 µg/mL
[4]
  IC50 (µg/ml), pseudovirus neutralization: > 50 µg/mL
[5]
  IC50 (µg/ml), pseudovirus neutralization: > 50 µg/mL
